Measurements as given in US12134788B2, “Engineered prephenate dehydrogenases and arogenate dehydrogenases and methods of using the same” (Wisconsin Alumni Research Foundation, priority 2017, dated 2024).

Legend:
[1] = substrate: N[C@@H](CC1(C(=O)O)C=CC(O)C=C1)C(=O)O; experiment: ADH and PDH assay: steady-state kinetics and Tyr inhibition, SolyncADH D224N; type: biochemical, Solanum lycopersicum (tomato); details: other: 0.5 mM NADP^+, pH 7.6, 37° C.
Description: (§1) Kinetic parameters of purified recombinant proteins were determined from assays conducted at varying arogenate (19.5 μM-5 mM) and prephenate concentration (23.4 μM-6 mM). Standard assay conditions were 25 mM HEPES pH 7.6, 50 mM KCl and 10% (v/v) ethylene glycol, and 0.5 mM NADP^+ with varied substrate, concentrations. Reactions were initiated by addition of enzyme and incubated at 37° C. monitored every 10-15 seconds at […] using a microplate reader (Tecan Genios). Kinetic parameters were determined by fitting initial velocity data to the Michaelis-Menten equation using the Origin software (OriginLab).
(§2) Arogenate was prepared by enzymatic conversion of prephenate (Sigma-Aldrich) as previously reported^56. For Tyr inhibition assays, Tyr was dissolved in a slightly basic solution (0.025 N NaOH) due to solubility issues, thus the concentration of lysis buffer was increased to 500 mM HEPES final concentration to buffer against the changes by addition of Tyr in the reaction. Reactions containing varying amounts of Tyr (10 μM-8 mM) with 0.5 mM NADP^+ and either 1 mM arogenate or 0.8 mM prephenate were monitored as above.

[2] = substrate: O=C(O)C(=O)CC1(C(=O)O)C=CC(O)C=C1; experiment: as above; type: biochemical, Solanum lycopersicum (tomato); details: other: 0.5 mM NADP^+, pH 7.6, 37° C.
Description: as §1, §2

[3] = substrate: N[C@@H](CC1(C(=O)O)C=CC(O)C=C1)C(=O)O; experiment: ADH and PDH assay: steady-state kinetics and Tyr inhibition, GmncADH D218N; type: biochemical, Glycine max (soybean); details: other: 0.5 mM NADP^+, pH 7.6, 37° C.
Description: as §1, §2

[4] = substrate: O=C(O)C(=O)CC1(C(=O)O)C=CC(O)C=C1; experiment: as above; type: biochemical, Glycine max (soybean); details: other: 0.5 mM NADP^+, pH 7.6, 37° C.
Description: as §1, §2

[5] = PDH assay: steady-state kinetics of purified recombinant plant enzymes with prephenate; type: biochemical; details: prephenate versus arogenate, NADP+ cofactor
Description: As used herein, a polypeptide may “have greater arogenate dehydrogenase activity than prephenate dehydrogenase activity” or “have greater prephenate dehydrogenase activity than arogenate dehydrogenase activity” when the steady-state kinetic parameters (kcat/Km (mM^−1s^−1)) for arogenate dehydrogenase activity are greater than the steady-state parameters (kcat/Km (mM^−1s^−1)) for prephenate dehydrogenase activity or when the steady-state kinetic parameters (kcat/Km (mM^−1s^−1)) for prephenate dehydrogenase activity are greater than the steady-state parameters (kcat/Km (mM^−1s^−1)) for arogenate dehydrogenase activity. Steady-state kinetic parameters may be measured using techniques similar to those described by the inventors in the Examples. Briefly, kinetic parameters of purified polypeptides can be determined from assays conducted at varying arogenate and prephenate concentrations. Standard assay conditions include 25 mM HEPES pH 7.6, 50 mM KCl and 10% (v/v) ethylene glycol, and 0.5 mM NADP^+ with varied substrate, concentrations. Reactions can be initiated by the addition of the polypeptide and incubated at 37° C. monitored every 10-15 seconds at A340nm using a microplate reader. Kinetic parameters may be determined by fitting initial velocity data to the Michaelis-Menten equation using the Origin software.
as §1

[6] = Tyr inhibition assay of ADH activity (arogenate substrate); type: biochemical; details: Tyr up to 8 mM
Description: as §2

[7] = substrate: N[C@@H](CC1(C(=O)O)C=CC(O)C=C1)C(=O)O; experiment: ADH and PDH assay: steady-state kinetics and Tyr inhibition, GmPDH1 N222D; type: biochemical, Glycine max (soybean); details: other: 0.5 mM NADP^+, pH 7.6, 37° C.
Description: as §1, §2

[8] = substrate: O=C(O)C(=O)CC1(C(=O)O)C=CC(O)C=C1; experiment: as above; type: biochemical, Glycine max (soybean); details: other: 0.5 mM NADP^+, pH 7.6, 37° C.
Description: as §1, §2

[9] = substrate: N[C@@H](CC1(C(=O)O)C=CC(O)C=C1)C(=O)O; experiment: ADH and PDH assay: steady-state kinetics and Tyr inhibition, GmPDH1 M219T/N222D; type: biochemical, Glycine max (soybean); details: other: 0.5 mM NADP^+, pH 7.6, 37° C.
Description: as §1, §2

[10] = substrate: O=C(O)C(=O)CC1(C(=O)O)C=CC(O)C=C1; experiment: as above; type: biochemical, Glycine max (soybean); details: other: 0.5 mM NADP^+, pH 7.6, 37° C.
Description: as §1, §2

[11] = substrate: N[C@@H](CC1(C(=O)O)C=CC(O)C=C1)C(=O)O; experiment: ADH and PDH assay: steady-state kinetics and Tyr inhibition, GmPDH1 M219T; type: biochemical, Glycine max (soybean); details: other: 0.5 mM NADP^+, pH 7.6, 37° C.
Description: as §1, §2

[12] = substrate: O=C(O)C(=O)CC1(C(=O)O)C=CC(O)C=C1; experiment: as above; type: biochemical, Glycine max (soybean); details: other: 0.5 mM NADP^+, pH 7.6, 37° C.
Description: as §1, §2

[13] = substrate: O=C(O)C(=O)CC1(C(=O)O)C=CC(O)C=C1; experiment: ADH and PDH assay: steady-state kinetics and Tyr inhibition, GmPDH1 N222A; type: biochemical, Glycine max (soybean); details: other: 0.5 mM NADP^+, pH 7.6, 37° C.
Description: as §1, §2

[14] = substrate: N[C@@H](CC1(C(=O)O)C=CC(O)C=C1)C(=O)O; experiment: ADH and PDH assay: steady-state kinetics and Tyr inhibition, MtncADH D220C; type: biochemical, Medicago truncatula; details: other: 0.5 mM NADP^+, pH 7.6, 37° C.
Description: as §1, §2

[15] = substrate: O=C(O)C(=O)CC1(C(=O)O)C=CC(O)C=C1; experiment: as above; type: biochemical, Medicago truncatula; details: other: 0.5 mM NADP^+, pH 7.6, 37° C.
Description: as §1, §2

[16] = substrate: N[C@@H](CC1(C(=O)O)C=CC(O)C=C1)C(=O)O; experiment: ADH and PDH assay: steady-state kinetics and Tyr inhibition, MtPDH C220D; type: biochemical, Medicago truncatula; details: other: 0.5 mM NADP^+, pH 7.6, 37° C.
Description: as §1, §2

[17] = substrate: O=C(O)C(=O)CC1(C(=O)O)C=CC(O)C=C1; experiment: as above; type: biochemical, Medicago truncatula; details: other: 0.5 mM NADP^+, pH 7.6, 37° C.
Description: as §1, §2

B1: Solanum lycopersicum SolyncADH variant D224N (Solanum lycopersicum; D224N) (protein)
chain: MSSSSSCQPKTLRIGIIGFGPFAQFLAKTMMKQGHCIHVTSRSDYSELCTDLGILFFRDMGAFLESDNEVIMISTSILSLSQVVESIPFNCLKRPTLFVDVLSVKEHPKDVLLRMMPRECDLLCTHPMFGPESGKDGWEDLTFMYDMVRIRDQPLCSSFLHIFSSEGCKMLEMTCEKHDRLAAQSQFLTHTIGRILSEMEVEPTPIDTKGFQKLVQVKESSVKNSFDLFSGLFIHNRFARQQMKNLEVALEKTKEKLQERSKELQDPIISKF
notes: D224N by site-directed mutagenesis
[1]
  Km: 1340 ± 480 µM
  kcat: 11.7 ± 0.2 s⁻¹
  kcat/Km: 8730 M⁻¹ s⁻¹
[2]
  Km: 2310 ± 100 µM
  kcat: 2.4 ± 1 s⁻¹
  kcat/Km: 1040 M⁻¹ s⁻¹

B2: Glycine max GmncADH variant D218N (Glycine max; D218N) (protein)
chain: MSTWSLKIGVVGFGSFGQFLAKTMIKQGHTLRATSRTDYSLLCLPMGIQFFRDVAAFLEADNDVILVCTSILSLSEVLSSMPLTCLKRSTLFVDVLSVKEHPRNLLIKVLPEESDILCTHPMFGPDSGKDGWQDLTFVYDKVRIRDEAICSSFLHIFASEGCRMLQMSCEEHDKIAAKSQFITHTIGRTLAEMDIKSTPIDTKGFHSLVQLKDTTIRNSFDLYSGLFLHNRFAVQELENLEHALHKVKEMLVQRKSEELGLEKTEC
notes: D218N by site-directed mutagenesis
[3]
  Km: 740 ± 140 µM
  kcat: 8.6 ± 0.2 s⁻¹
  kcat/Km: 11600 M⁻¹ s⁻¹
[4]
  Km: 1980 ± 50 µM
  kcat: 11.5 ± 0.5 s⁻¹
  kcat/Km: 5810 M⁻¹ s⁻¹

B3: GmncADH: noncanonical arogenate dehydrogenase from soybean, wild-type (protein)
chain: MSTWSLKIGVVGFGSFGQFLAKTMIKQGHTLRATSRTDYSLLCLPMGIQFFRDVAAFLEADNDVILVCTSILSLSEVLSSMPLTCLKRSTLFVDVLSVKEHPRNLLIKVLPEESDILCTHPMFGPDSGKDGWQDLTFVYDKVRIRDEAICSSFLHIFASEGCRMLQMSCEEHDKIAAKSQFITHTIGRTLAEMDIKSTPIDTKGFHSLVQLKDTTIRDSFDLYSGLFLHNRFAVQELENLEHALHKVKEMLVQRKSEELGLEKTEC
modifications: GmncADH WT
notes: noncanonical arogenate dehydrogenase from soybean, wild-type
[5]
  substrate specificity: PDH versus ADH activity (in words): only displayed activity with arogenate
[6]
  feedback inhibition by Tyr (in words): sensitive to Tyr but with IC50 values in the mM range

B4: Glycine max GmPDH1 variant N222D, SEQ ID NO: 2 (Glycine max; N222D) (protein)
chain: MSTSSSSQSLKIGIVGFGNFGQFLAKTMIKQGHTLTATSRSDYSELCLQMGIHFFRDVSAFLTADIDVIVLCTSILSLSEVVGSMPLTSLKRPTLFVDVLSVKEHPRELLLRELPEDSDILCTHPMFGPQTAKNGWTDHTFMYDKVRIRDEVICSNFIQIFATEGCKMVQMSCEEHDRAAAKSQFITHTIGRTLGEMDIQSTPIDTKGFETLVKLKETMMRDSFDLYSGLFVYNRFARQELENLEHALHKVKETLMIQRTNGEQGHKRTES
[7]
  Km: 530 ± 180 µM
  kcat: 27.8 ± 3.5 s⁻¹
  kcat/Km: 52400 M⁻¹ s⁻¹
[8]
  Km: 7580 ± 1130 µM
  kcat: 19.1 ± 1.4 s⁻¹
  kcat/Km: 2520 M⁻¹ s⁻¹

B5: Glycine max GmPDH1 variant M219T/N222D (Glycine max; M219T/N222D) (protein)
chain: MSTSSSSQSLKIGIVGFGNFGQFLAKTMIKQGHTLTATSRSDYSELCLQMGIHFFRDVSAFLTADIDVIVLCTSILSLSEVVGSMPLTSLKRPTLFVDVLSVKEHPRELLLRELPEDSDILCTHPMFGPQTAKNGWTDHTFMYDKVRIRDEVICSNFIQIFATEGCKMVQMSCEEHDRAAAKSQFITHTIGRTLGEMDIQSTPIDTKGFETLVKLKETTMRDSFDLYSGLFVYNRFARQELENLEHALHKVKETLMIQRTNGEQGHKRTES
[9]
  Km: 630 ± 180 µM
  kcat: 29 ± 4.4 s⁻¹
  kcat/Km: 46000 M⁻¹ s⁻¹
[10]
  Km: 1180 ± 120 µM
  kcat: 2.5 ± 0.3 s⁻¹
  kcat/Km: 2120 M⁻¹ s⁻¹

B6: Glycine max GmPDH1 variant M219T (Glycine max; M219T) (protein)
chain: MSTSSSSQSLKIGIVGFGNFGQFLAKTMIKQGHTLTATSRSDYSELCLQMGIHFFRDVSAFLTADIDVIVLCTSILSLSEVVGSMPLTSLKRPTLFVDVLSVKEHPRELLLRELPEDSDILCTHPMFGPQTAKNGWTDHTFMYDKVRIRDEVICSNFIQIFATEGCKMVQMSCEEHDRAAAKSQFITHTIGRTLGEMDIQSTPIDTKGFETLVKLKETTMRNSFDLYSGLFVYNRFARQELENLEHALHKVKETLMIQRTNGEQGHKRTES
[11]
  Km: 1550 ± 140 µM
  kcat: 4.6 ± 0.3 s⁻¹
  kcat/Km: 2970 M⁻¹ s⁻¹
[12]
  Km: 100 ± 20 µM
  kcat: 30.3 ± 0.8 s⁻¹
  kcat/Km: 303000 M⁻¹ s⁻¹

B7: Glycine max GmPDH1 variant N222A (Glycine max; N222A) (protein)
chain: MSTSSSSQSLKIGIVGFGNFGQFLAKTMIKQGHTLTATSRSDYSELCLQMGIHFFRDVSAFLTADIDVIVLCTSILSLSEVVGSMPLTSLKRPTLFVDVLSVKEHPRELLLRELPEDSDILCTHPMFGPQTAKNGWTDHTFMYDKVRIRDEVICSNFIQIFATEGCKMVQMSCEEHDRAAAKSQFITHTIGRTLGEMDIQSTPIDTKGFETLVKLKETMMRASFDLYSGLFVYNRFARQELENLEHALHKVKETLMIQRTNGEQGHKRTES
[13]
  Km: 190 ± 40 µM
  kcat: 6.6 ± 0.3 s⁻¹
  kcat/Km: 34700 M⁻¹ s⁻¹

B8: Medicago truncatula MtncADH variant D220C, SEQ ID NO: 10 (Medicago truncatula; D220C) (protein)
chain: MSNSPSLKIGIVGFGSFGQFLAKTMIKQGHTLTATSRTDYSHTCLQLGIQFFRDVGTFIEANNDVILICTSIMSFTKVLSSMPLACLKKPTTLFVDVLSVKEHPREVLLRVLPEESDILCTHPMFGPESGKNGWKDLNFMYDKVRIHDEATCSNFLHIFASEGCKMLQMSCEEHDKIAAKSQFITHTIGRTLAEMDIESTPIDTKGFQTLTQLKNTTMRCSFDLYSGLFVHNRFAKQELENLQRALDRVKEMLVQRMREELGPEKD
notes: D220C by site-directed mutagenesis
[14]
  Km: 870 ± 30 µM
  kcat: 7 ± 0.8 s⁻¹
  kcat/Km: 8050 M⁻¹ s⁻¹
[15]
  Km: 740 ± 30 µM
  kcat: 10.1 ± 0.5 s⁻¹
  kcat/Km: 13600 M⁻¹ s⁻¹

B9: Medicago truncatula MtPDH variant C220D, SEQ ID NO: 1 (Medicago truncatula; C220D) (protein)
chain: MSSSSKSLKIGIVGFGTFGQFLANTMIKQGHTLTATSRTDYSQLCDQMGIHFFRDITAFLDADMDVILLCTSISSLSEVVGSMPLACLKRPTLFVDVLSVKEHPKNLLLKVLPEESDILCTHPMFGPVSGKNGWQNLTFMFDKVRIKDEVTCSKFLQIFASEGCKMVEMSCEEHDKAAAKSQFITHTIGRTLAEMDIKSTPIDTKGFQTLVELKKPVMGDSFDLYSGLFVYNRFARQELENLEHALHKVKEMLVQRIDEGQNPERTES
[16]
  Km: 270 ± 10 µM
  kcat: 46.8 ± 4.2 s⁻¹
  kcat/Km: 173000 M⁻¹ s⁻¹
[17]
  Km: 1530 ± 90 µM
  kcat: 0.5 ± 0.1 s⁻¹
  kcat/Km: 327 M⁻¹ s⁻¹
